Assay: soluble on expression in E. coli; label from the status in PepcDB or PDB records

Sequence | soluble on expression in E. coli
MGIGKEIRLERIMNRETRKTIIVPMDHGVSSGPIEGIVNIREAVEKVAEGGANAVVLHKGMVRAGHRGRGRDIGLIVHLSASTDLSPRKNDKVLVCTVEEAIRLGADAVSIHVNIGAEGEREMLKDFGYVSKVCEEWQMPLLAMVYGRGPKIENQYDPKVVAHCARVGAELGADIVKVPYTGDPETFKLAIEGSPIPVVIAGGPKMKSEREVLEMVQGAMQAGAAGLSIGRNIFQAKDPAKMVRAMSLIVHEGKSVEEAFEILK | not soluble
MAHHHHHHMGISEGFEGIGVYAGSISAFMKPAHEKADATFVTNGDGVLPCEQPGSQAAIQAAQADYMASVAMTGKLPSPPHAGAEAHLHAHMQASHTSSLPRRAPPAALNVTPRNPPMSLAADPKLLSSPTSASAARPAVAAAAAAIGVTARPATSSLSSSPRPQSHIAKGASRVTADGSRIMRNKEATDYYRALPQNELSKEDMWRRINEASADRAEATGTAIGSAEVDYIKLEDELRDFDLFHYRIGEMAYPDQAMRRDYYALWNLAMSLNKARWSMLEVHSQRGMKTTGAGMKLIFWKESVGAVMEKRKMCTGEFTDSHPVLRPFAAAVERNPHMTKAFVRGFTDARLRVIQQPGNVQQLFDHFDKFYGYFFNSLLEVTHIKDEATEHLMTHVGRATGLTNHCVMFWKKYARLGFTMLPADLCADNHVNLGLLKNIPLASRDRAVRKVLFDVMCIVKDEMLHAQKCAKDVPPKAWPIVMECLYANYYLGFLQRRDFNVSAMFADHNIENAGFTWYRLKKRWEWERYQSIERLVDEAAPLPYINTCFTHRGSHYKMASGVGSGAPQAQRKRS | not soluble
MGSDKIHHHHHHMNEIKRIDTVQQYNDYFGMETLHPLVTVIDAREANPVHFCPKLYNLYAILMKDPDCGTLKYGRSIYDYQQGTMLFLAPGQVMGSDDDGQLHQPGGWLLAFHPELVRNTPLAQFIKNYSFFSYSANEALHLSEQERRTIIDCMCKIREELLHPIDKHTKSLITDNIKLLLDYCERFYDRQFETRENVNLDILARFEQTLDDYLASNLPISKGTPTVQYCADKLCLSANYLSDLLKKETGVSALKHIQQKMLDIAKERVFDVTKSISEISYELGFPYPQHFSRWFKKMVGVTPNEYRQNRNN | not soluble
MPDMANVESFDLDHTKVKAPYVRLAGVKTTPKGDQISKYDLRFLQPNQGAIDPAAIHTLEHLLAGYMRDHLEGVVDVSPMGCRTGMYMAVIGEPDEQGVMKAFEAALKDTAGHDQPIPGVSELECGNYRDHDLAAARQHARDVLDQGLKVQETILLERGSHHHHHH | soluble
MAHHHHHHMKCFLIVDAQNDFLPTGSFNSRDDYMDTLNKINAIRLRLHNCTEKDLLKLSNCKHLMKYQPDKLLKENIVQYHQCNNDIDDDEREGDILIFPTDHRVMTCLSNRLSASNICSDLHKQTAQGTANGVERIPNNNNNGFSHTKEGTSHNGTHMHNHHPDESHQKNVETNDVETNNLARRNRSKESTNSENAKFALNILSVDYHPPCHISFAETHRILFEQIKRNKGTKNSSAEINIDRVTELSSHAQVNSSVASEEEAEGAHAEEAECDDEGTPSLDHTNEADGGEVQEPPQADLLQSAFLKKNKIFNLTDVMKNIQKIKSTRYIYKNVNSVSDIKEYSKLNFLNEWIDVWPIHCVRNTPGCKVHPNLIRHINDIVIKKADTENHDSHTIFENSEINQKILNLLKKQNIKSVYICGFIFEYCVKETALSFFNLGFDTYIVEDATAYLFGREEDKDNLKKKGIKFVNSSTMFA | not soluble
MQLKRVAEAKLPTPWGDFLMVGFEEIATGHDHLALVYGDISGSVPVLARVHSECLTGDALFSLRCDCGFQLEAALGHIAEEGRGVLLYHRQEGRNIGLLNKIRAYALQDLGADTVEANHQLGFAADERDFTLCADMFKLLDVDEVRLLTNNPQKVKILNEAGINIVERVPLIVGRNPKNEHYLATKAAKMGHILDMKLEHHHHHH | not soluble
MGSDKIHHHHHHMATKHEQILQYITNLEVGEKISVRRIAKDLQVSEGTAYRAIKEAENQGLVSTIERVGTIRIEKKQKENIEKLTYAEVVNIVDGQVLGGRDGLHKTLNRFVIGAMKLDAMMRYVEPGNLLIVGNRYQVHQIALEAGAAVLITGGFDTSDEAIKLADELDLPVISTSYDTFTVATMINRAIYDQLIKKEITLVDDILIPLQDTYYMTTENVVGKWHELNEKTGHSRYPVIDENMKIQGMVAAKDVLNASRHTPIEKVMTKNPITVSERTSVAAVAHVMVWEGIELLPVIDSHRKLIGVVSRQDVLKALQMIQRQPHVGETIEDLMTNGLNESSSDQGDSYEVEITPQMTNQLGTISHGVMTSLVIESGSRVLRKYKKGDLVVENITLYFLKPVQIDSRLTIRPRVLEIGRKHGKIDVEMYHEGEIVGKALFMAQIID | not soluble
LTDDPGSGFTTVWNAVVSELNGDPKVDDGPSSDANLSAPLTPQQRAWLNLVQPLTIVEGFALLSVPSSFVQNEIERHLRAPITDALSRRLGHQIQLGVRIAPPATDEADDTTVPPSENPATTSPDTTTDNDEIDDSAAARGDNQHSWPSYFTERPHNTDSATAGVTSLNRRYTFDTFVIGASNRFAHAAALAIAEAPARAYNPLFIWGESGLGKTHLLHAAGNYAQRLFPGMRVKYVSTEEFTNDFINSLRDDRKVAFKRSYRDVDVLLVDDIQFIEGKEGIQEEFFHTFNTLHNANKQIVISSDRPPKQLATLEDRLRTRFEWGLITDVQPPELETRIAILRKKAQMERLAVPDDVLELIASSIERNIRELEGALIRVTAFASLNKTPIDKALAEIVLRDLIADANTMQISAATIMAATAEYFDTTVEELRGPGKTRALAQSRQIAMYLCRELTDLSLPKIGQAFGRDHTTVMYAQRKILSEMAERREVFDHVKELTTRIRQRSKR | soluble
MGSDKIHHHHHHMITEELEVGYNVPATVGMDEADIQTPCLILDLDALERNVKKMGDYAKAHNMRHRSHGKMHKSVDVQNLQEELGGAIGVCCQKVSEAEVFVRGGIKDVLVSNQVRNPAKIERLANLPKLGSTITVCVDDIDNVAELSAAATKAGTELNCYIEIDCGAGRCGVTTTEAVVEIAKAIDAAENLKFTGIQAYQGAMQHMDSFSDRKAKTQIAIDQVQEAIDALTEIGLKPEFVSGGGTGSYYFESNSGVFNELQCGSYAFMDADYGRILDEDGNRIDAGEWENALFILTSVMSHAKADKAIVDAGLKAQSVDSGLPFVYGRDDVEYVKCSDEHGVVSDPNGVLEINEKLKLVPGHCDPTCNVHDFYIGVRNGKVETVWPVSARGKMY | not soluble
MAVLKGLRPRVPKGLKSPPEPWGWPLLGHVLTLGKNPHLALSRMSQRYGDVLQIRIGSTPVLVLSRLDTIRQALVRQGDDFKGRPDLYTSTLITDGQSLTFSTDSGPVWAARRRLAQNALNTFSIASDPASSSSCYLEEHVSKEAKALISRLQELMAGPGHFDPYNQVVVSVANVIGAMCFGQHFPESSDEMLSLVKNTHEFVETASSGNPLDFFPILRYLPNPALQRFKAFNQRFLWFLQKTVQEHYQDFDKNSVRDITGALFKHSKKGPRASGNLIPQEKIVNLVNDIFGAGFDTVTTAISWSLMYLVTKPEIQRKIQKELDTVIGRERRPRLSDRPQLPYLEAFILETFRHSSFLPFTIPHSTTRDTTLNGFYIPKKCCVFVNQWQVNHDPELWEDPSEFRPERFLTADGTAINKPLSEKMMLFGMGKRRCIGEVLAKWEIFLFLAILLQQLEFSVPPGVKVDLTPIYGLTMKHARCEHVQARRFSINHHHH | soluble
MGSDKIHHHHHHMNIKDLQYYVSLTQLKNFSLVAAQFHVSQPTISAAIRRLETELKTQLLIRANPHLPVALTTTGIQVQRHANQILLEHQLMCQEVAHTTTDQLVIGMPPIIEINYFPRIASQLPQALFSQIQPISQGSLAALKGLKNGQLDLAVLAYLNEFTDTTIQLTTFDTQSFSIVVPTDDPLATNSQLQFRSLRHQHFVALKDNFVHRQAFRQLSHQNHVRPTIVFESNEIGSILNMVRQHVGIALLSNAVQLPAGLQRLPLTDAQAPTFNVGVAYRHSMTFSPTQADLIQRLTAAFQSVDWRAY | not soluble
MGSDKIHHHHHHLRVGEVAPTAIDLHIHTIESDGSLSVAGVIQEAAERGVRVLALTDHETTNGVPEAMELGQKHNLNIIPGVELITAFKGKEVHLLGYFSYAAMMHSDLQSRLKELRQQRTYLAFEMVKRLQKDGFTLKWAEVEKIANPEGAVSKGHIMRALHEHENGTIQWPVIAKLFQPYGIAYLPFLEHPFEEAVDLIYTCGGVPVLAHPGLLRDDRMVGELLSYLPMGLEVYYGYWEQREALIQNYKTIAQDKAILTTGGSDFHGLFGPVKLGEIEVPEQCSRELQTFLKLDF | not soluble
DDFEDSLEYLEPLDHDAYIVRLNFTGENTTEPIISYMTKTHNIDVNILEADIKNTKNGSLGFLVIHIPHISEEHFKQFKHNLHEQHVNVEVLKHG | not soluble
MGSDKIHHHHHHMGVTGNNYTKIFHRMYWDGTPTPTQLAQELSKHGLAITGISLWQLYNGTLQFPIYVATERQLKSTQWVTFHRRKQLRCCPAGVFSVEYPVLAITNLSDAQAIETLEGAYAKAQGAKFAAEHARQYVPQRNRELLRRAVVGVDSPPEKLLITALREQGIDCHANVLVGDYRWDIQLDRHRVLIEVDGFEFHRFKPENQDAFVRDRWKTNDATLRGYLCLHYAARSVYRHTAVIVDQVQAAIRVAPARGYPFDASAMWHRGCWKWS | not soluble
MIETLEENLEKVFKAIRSLIIEDMAKDMPMLALTLELLQSIPGIGLISAVTILAEIGDFSAFSKPGKLVAYFGIDPSVMQSGEFTGTQNKMSKRGSRLLRRVLFTIALANIRTKRDKTACNPVLMEYYKNKCQSKPKKVALGAVMRKLVNYIFAVLRDRKPYELRSPQEHAQMLAAKHTAA | not soluble
MSLATIVVKTTPDNEIAYWPTGKEHLFCIALGTKAQAGPLGEFVHQFRTDRPGMVQVWTQGSDSFTLYLTPGSKDTITVTKDTLIISGTNSAYNRCLKTVNDYQKYSDKLVYMQPHELRGITSLEQYHRLADARMRQALDAVNASGLNEEFLAEQRAHIDYIRRSIFIHIARQLSRKEKLPEDWQRELTEVINSSVNGDYLRSYRGIGFFVNDLVMMQFTNLENGDLKEIKEYASFLFDRYRKFFTGDNLQYMQAQLIYEDEFQGSKTPSIPQLYETYRAEFPNSPFLNVLEPGVKENLRFQNSRITDKDYHILTCDSTITSLEDAVKPFKGKVVYIDVWATWCGPCLKEFQYLPTLKEKAHNMDVVYLYISIDRPEERKKWEKTIAYHQLKGYHLLVNEKLGKSLYTELGNERQILSIPCFVIIDKTGKIVIRHAAAPSEPEKVIEQLSTYYNKEGHHHHHH | soluble
EEYPDGFAPMKPDQAEEAVLAGIALSACLIETNRRERFADRLRAAAGALREDWVVKIGDNHVAARLLDGLVTIPFDMDIAIEGAIEGESKSVVTDWR | not soluble
MADLFNKHLKKATNRTKEKLLEGIGKAKATQDEVFDQHAANLNKQSKSCEKLHKDVKNYSSALRTLLSAEKQLRDTIRDAYEPEWPDREHLTAIFDNLDIQTNELEKTVCDDLPQTVTQYVNQFPDLKKKIEKRGRKLVDYDSAKNSFNSVKASSKKDNDPKLAKATMELQAAEQMYTEMNNELLEILPAVFDSRITFFVDTLQTLFNANSVYQTDASKFHKQIVMQLDKLGESMDYLRVARPEARALTPIDTTSLASSDAPATPDQNKSDNSSLRQTPSPSVLPSPVPAPMAKPRESVVSMANSTNPFDDDDAEHDKEATPTDVEEKFEAKVYPKLNAQQTAAAEQAIAAAKREKKEASNPFDDEDDESTEVEEAPKKKDPEPTPKPLDGITNEKRKTLYFVTSTHNYKAVDTDELSFEQGVQIKVIEANEDDQLDDGWRLGELEDGKRGVFPENFTKKV | not soluble
GRYEIRFSGAGGQGLILAGVIMAEAASIYDGKQAVQSQSYGPEARGGASKSEVIISDGPVDYPKATQCDALLALTQEACDKYSADLKEGGVLLVDSDLVTKLPPGNYQTTAFNIINTAKNDVGREIVANIVALGAMVALTGVVSKEAAEKAVLSRVPEAFVELNRKAFQMGFEKALAAKK | soluble

— the DeepSol protein solubility set
